According to patent publication US20120277286A1, “COMPOSITIONS AND METHODS FOR THE TREATMENT OR PREVENTION OF MITOCHONDRIAL DISEASES” (The Government of the USA, as represented by the Secretary, …, priority 2009, published 2012):

Tests used:
HeLa cells = test: PINK1-YFP imaging and colocalization in HeLa cells; type: cell-based; conditions: live imaging, 10 μM CCCP
Experimental: Confocal microscopy of fixed samples, scoring of Parkin recruitment and Parkininduced mitophagy, and live cell imaging were performed as described previously (Narendra (2008) J Cell Biol 183: 795-803). Experiments in Mfn1/2 null cells were performed as described previously with minor modifications.
Confocal microscopy of fixed samples, scoring of Parkin recruitment and Parkin-induced mitophagy, and live cell imageing were performed as described previously (Narendra (2008) J Cell Biol 183: 795-803). Experiments in Mfn1/2 null cells were performed as described previously with minor modifications described in the supplemental methods (Narendra (2008) J Cell Biol 183: 795-803).

PINK1-V5 = PINK1-V5 accumulation in cortical neurons, immunoblot; type: cell-based, rat; conditions: 1 μM CCCP, 6 hours
Text: HeLa YFP-Parkin, E18 Rat cortical neurons, PINK1^+/+ SV40 transformed MEFs cells, PINK1^−/− SV40 transformed MEF, M17 neuroblastoma control shRNA, M17 neuroblastoma PINK1, Mfn1/2^−/− MEF, and Parl^−/− MEF cell lines have been described previously (Narendra (2008) J Cell Biol 183: 795-803). PINK1^+/+ and PINK1^−/− primary MEFs were isolated from embryos using a standard protocol (Gautier (2008) Proc Natl Acad Sci USA 105: 11364-11369). Parkin^+/+ and Parkin^−/− transformed MEFs were created by isolation of primary cells from embryos of B6.129S4-Park2^tm1Shn/J mice (Jackson Labs), using a standard protocol (Gautier (2008) Proc Natl Acad Sci USA 105: 11364-11369), followed by retroviral transduction of SV40 (Applied Biological Materials, Inc.). YFP-Parkin, YFP-Parkin mutants, mCherry-Parkin, PINK1-YFP, PINK1 KD-YFP, PINK1 Δ1-110-YFP, and Opa3-PINK1 Δ1-110-YFP are in C1 or N1 Clontech vectors. PINK1WT-V5, PINK1 KD-V5, and PINK1 Δ1-156-V5 are in pDest40 vector (Invitrogen). PINK1 patient mutations are in the pLenti-V5 vector (Invitrogen). PINK1-myc is in a pCMBTNT vector (Promega). The PARL shRNA construct targeting (5′ […] 3′) is in the pSuper-GFP vector. […]

PINK1 = PINK1 accumulation by fractionation and immunoblotting; type: cell-based; conditions: HeLa cells, mitochondrial membrane fraction; 10 μM CCCP or 1 μM valinomycin
In short: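 HeLa cells fractionated with a mitochondria isolation kit for PINK1, with membrane fractions carbonate-extracted in cold 0.1M Na2CO3 to pellet integral membrane proteins; Parkin fractionation by a separate published protocol. PINK1 and Parkin detected in fractions by immunoblot with monoclonal and polyclonal antibodies.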

COXICA65 cybrid cells = test: PCR-RFLP of wild-type and mutant mtDNA; type: cell-based, human
Text: The forward primer, [NT], and the reversed primer, [NT], were used for COXICA65 cybrid.

Cytochrome c oxidase = Cytochrome c oxidase activity assay; type: cell-based, human
Experimental: Cells grown on 10 cm diameter dishes were collected in extraction buffer [10 mM HEPE, 10 mM […], 1.5 mM MgCl2,4 mM NaF, 100 μM NaOVac, 1× protease cocktail (Roche)] and lysed by 20 passages through a 25 gauge needle. Samples were spun at 500×g for 5 minutes to pellet nuclei. The supernatant was then spun at 8000 rpm for 10 minutes to pellet the mitochondrial rich heavy membrane fraction. The pellet was washed with extraction buffer once and resuspended in 1× enzyme dilution buffer containing 1 mM n-dodecyl-p-maltoside (CYTOCX1 kit, Sigma). The COXI activity assay was performed according to the manufacturer's instructions. Fresh 10 μg of mitochondrial protein and 10 μM Ferrocytochrome c substrate were used in each assay. SpectraMax plus^384 (Molecular Devices) was used to measure A550 every 10 seconds for […] The Vmax of each sample was calculated by SOFTmax PRO (Molecular Devices). The mean and standard deviation were calculated from three experiments

[1] = COXICA65 cybrid, YFP-Parkin for 45 days

Molecule: N#CC(C#N)=NNc1cccc(Cl)c1 [CCCP, carbonyl cyanide m-chlorophenylhydrazone]
- time when increase of PINK1-YFP expression was first detectable (HeLa cells): 1 to 5 min
- PINK1-V5 level (PINK1-V5): increases
- endogenous full length PINK1 (˜63 kDa) level after depolarization (PINK1): large increase

B1: YFP-Parkin: YFP-tagged Parkin E3 ligase expressed from a transfected vector (protein, UniProt O60260 1-465, looked up)
E3 ubiquitin-protein ligase …: MIVFVRFNSSHGFPVEVDSDTSIFQLKEVVAKRQGVPADQLRVIFAGKELRNDWTVQNCDLDQQSIVHIVQRPWRKGQEMNATGGDDPRNAAGGCEREPQSLTRVDLSSSVLPGDSVGLAVILHTDSRKDSPPAGSPAGRSIYNSFYVYCKGPCQRVQPGKLRVQCSTCRQATLTLTQGPSCWDDVLIPNRMSGECQSPHCPGTSAEFFFKCGAHPTSDKETSVALHLIATNSRNITCITCTDVRSPVLVFQCNSRHVICLDCFHLYCVTRLNDRQFVHDPQLGYSLPCVAGCPNSLIKELHHFRILGEEQYNRYQQYGAEECVLQMGGVLCPRPGCGAGLLPEPDQRKVTCEGGNGLGCGFAFCRECKEAYHEGECSAVFEASGTTTQAYRVDERAAEQARWEAASKETIKKTTKPCPRCHVPVEKNGGCMHMKCPQPQCRLEWCWNCGCEWNRVCMGDHWFDV
modifications: YFP fusion
notes: YFP-tagged Parkin E3 ligase expressed from a transfected vector
- wild-type and mutant mtDNA bands (COXICA65 cybrid cells; [1]): increase in wild-type DNA and a decrease in mutant DNA
- mutant mtDNA band at 63 bp (COXICA65 cybrid cells; COXICA65 cybrid, YFP-Parkin for sixty days): only a very minor band of mutant mtDNA
- wild-type mtDNA percentage after reversion (COXICA65 cybrid cells; cells enriched to 73.7% wild-type, cultured without FACS selection): ~20%
- wild-type relative to mutant mtDNA (COXICA65 cybrid cells; cells enriched to >90% wild-type, further 67 days without FACS selection): more than 50%
- percent of wild-type mtDNA (32P labeling) (COXICA65 cybrid cells; first experiment, 180 days): 40.3%
- percent of wild-type mtDNA (32P labeling) (COXICA65 cybrid cells; first experiment, after 200 days): 73.7%
- percent of wild-type mtDNA (32P labeling) (COXICA65 cybrid cells; second experiment, after 200 days): 90.3%
- COX activity relative to parental 143B cells (Cytochrome c oxidase; [1]): 65.8±16.14%
- COX activity relative to parental 143B cells (Cytochrome c oxidase; COXICA65 cybrid, YFP-Parkin for 60 days): 96.90±8.49%
- COX activity relative to parental 143B cells (Cytochrome c oxidase; Parkin-enriched cybrid cells stably at ˜50% wild-type mtDNA, 67 days without selection): 55.7±29.2%
